# Measurements from patent US20230051715A1 (MABWELL THERAPEUTICS, published 2023).
# T1: human C1s mutant M2 (M277I & K331Q) (human, UniProt P09871 16-688)
# T1 construct: The entry is the mutant itself
# T1 sequence: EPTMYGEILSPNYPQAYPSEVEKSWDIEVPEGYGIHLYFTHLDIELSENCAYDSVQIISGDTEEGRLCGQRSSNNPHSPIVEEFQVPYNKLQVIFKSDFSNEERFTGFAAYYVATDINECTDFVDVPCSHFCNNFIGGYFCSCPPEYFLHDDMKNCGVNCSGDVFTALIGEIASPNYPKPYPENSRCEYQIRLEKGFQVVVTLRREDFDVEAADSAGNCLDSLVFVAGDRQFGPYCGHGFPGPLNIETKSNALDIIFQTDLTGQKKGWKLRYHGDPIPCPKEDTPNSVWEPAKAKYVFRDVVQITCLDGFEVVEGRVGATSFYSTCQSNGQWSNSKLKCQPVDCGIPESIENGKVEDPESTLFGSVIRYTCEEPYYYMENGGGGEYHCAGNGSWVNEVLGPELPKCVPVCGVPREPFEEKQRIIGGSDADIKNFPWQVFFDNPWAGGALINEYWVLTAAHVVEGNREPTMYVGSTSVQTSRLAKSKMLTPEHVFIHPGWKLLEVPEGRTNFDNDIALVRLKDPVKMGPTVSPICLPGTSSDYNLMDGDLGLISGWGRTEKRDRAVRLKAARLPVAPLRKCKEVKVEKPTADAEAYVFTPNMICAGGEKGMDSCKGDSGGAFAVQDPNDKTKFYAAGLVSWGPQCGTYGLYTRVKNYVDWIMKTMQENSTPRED
# T2: human C1s mutant M14 (R316H) (human, UniProt P09871 16-688)
# T2 construct: The entry is the mutant itself
# T2 sequence: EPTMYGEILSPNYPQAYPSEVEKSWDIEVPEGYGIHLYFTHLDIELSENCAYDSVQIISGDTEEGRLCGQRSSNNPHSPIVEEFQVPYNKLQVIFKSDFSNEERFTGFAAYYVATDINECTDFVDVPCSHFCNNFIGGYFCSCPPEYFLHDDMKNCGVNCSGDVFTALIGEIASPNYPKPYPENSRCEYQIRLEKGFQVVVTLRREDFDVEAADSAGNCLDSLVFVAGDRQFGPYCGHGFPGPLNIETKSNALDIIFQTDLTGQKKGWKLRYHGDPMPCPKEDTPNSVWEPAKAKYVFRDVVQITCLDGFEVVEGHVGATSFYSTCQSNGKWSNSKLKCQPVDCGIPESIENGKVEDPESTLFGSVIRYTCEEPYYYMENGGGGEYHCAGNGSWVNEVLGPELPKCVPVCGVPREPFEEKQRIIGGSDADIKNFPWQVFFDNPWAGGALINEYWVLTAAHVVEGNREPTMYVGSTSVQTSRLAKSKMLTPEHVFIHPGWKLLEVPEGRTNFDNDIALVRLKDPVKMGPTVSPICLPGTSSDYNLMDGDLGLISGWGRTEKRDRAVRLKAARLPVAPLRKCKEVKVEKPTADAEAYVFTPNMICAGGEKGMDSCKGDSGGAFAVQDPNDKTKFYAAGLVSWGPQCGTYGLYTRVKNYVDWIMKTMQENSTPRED
# T3: human C1s mutant M19 (Q303K) (human, UniProt P09871 16-688)
# T3 construct: The entry is the mutant itself
# T3 sequence: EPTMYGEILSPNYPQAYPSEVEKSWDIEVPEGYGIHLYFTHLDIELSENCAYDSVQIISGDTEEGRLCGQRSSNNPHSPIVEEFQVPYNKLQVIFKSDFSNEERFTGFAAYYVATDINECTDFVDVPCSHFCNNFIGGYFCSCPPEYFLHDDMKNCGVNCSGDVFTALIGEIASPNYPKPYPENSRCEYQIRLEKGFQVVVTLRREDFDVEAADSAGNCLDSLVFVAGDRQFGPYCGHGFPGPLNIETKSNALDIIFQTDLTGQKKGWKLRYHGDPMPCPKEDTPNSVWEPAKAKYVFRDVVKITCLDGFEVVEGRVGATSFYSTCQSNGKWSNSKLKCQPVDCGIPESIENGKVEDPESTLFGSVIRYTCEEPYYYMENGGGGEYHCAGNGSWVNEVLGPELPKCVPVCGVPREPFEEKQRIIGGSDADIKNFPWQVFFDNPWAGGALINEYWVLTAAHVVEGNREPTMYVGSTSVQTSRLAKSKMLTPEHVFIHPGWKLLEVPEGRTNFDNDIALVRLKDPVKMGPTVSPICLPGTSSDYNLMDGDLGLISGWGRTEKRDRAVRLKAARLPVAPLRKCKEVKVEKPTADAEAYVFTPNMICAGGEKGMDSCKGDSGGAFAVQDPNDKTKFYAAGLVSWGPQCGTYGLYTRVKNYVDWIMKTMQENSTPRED
# Legend:
# [1] = target: T1, human C1s mutant M2 (M277I & K331Q); assay: ELISA, plate coated with human C1s mutant M2: M277I, K331Q, OD450nm
# Experimental: (§1) ELISA was carried out by first coating 96-well plates with 200 ng/well of full-length or truncated C1s proteins overnight. The next morning, plates were blocked with SuperBlock T20 blocking buffer (Thermo Scientific 37536) for 1 h with gentle shaking. Then, various concentrations of anti-C1s antibodies diluted in SuperBlock T20 blocking buffer were added to the plates and incubated for 1 h with gentle shaking. Mouse IgG (Sigma-Aldrich 15381) and human IgG1 (BioXCell BP0297) were used as negative controls. The plates were washed before incubating with HRP conjugated secondary antibodies diluted in SuperBlock T20 blocking buffer (goat anti-mouse IgG (H+L) cross-adsorbed secondary antibody HRP (Invitrogen G-21040) or goat anti-human IgG antibody, HRP conjugate (Millipore AP309P)) for 1 h with gentle shaking. At last, the plates were washed and color developed with ELISA liquid HRP substrate (Sigma-Aldrich), followed by stopping the reaction with addition of 1M H₂SO₄ in the same volume as the ELISA liquid substrate. Bound antibody was measured by absorbance at OD₄₅₀ₙₘ.
# (§2) Binding of anti-C1s antibodies to mutants M1-M20 of human C1s was measured by ELISA as described in Example 4, and results are shown in FIGS. 6B-6U. All anti-C1s humanized variants including hz2-7(H1L2), hz2-8(H1L2 G80A) and hz2-8(H1L2 G80A/T82A) maintained strong binding properties to the majority (16 out of 20) of C1s mutants including M1 (FIG. 6B), M2 (FIG. 6C), M3 (FIG. 6D). M4 (FIG. 6E), M7 (FIG. 6H), M8 (FIG. 6I), M10 (FIG. 6K), M11 (FIG. 6L), M12 (FIG. 6M), M13 (FIG. 6N), M15 (FIG. 6P), M16 (FIG. 6Q), M17 (FIG. 6R), M18 (FIG. 6S), M19 (FIG. 6T) and M20 (FIG. 6U).
# [2] = target: T2, human C1s mutant M14 (R316H); assay: ELISA, plate coated with human C1s mutant M14: R316H, OD450nm
# Experimental: as §1, §2
# [3] = target: T3, human C1s mutant M19 (Q303K); assay: ELISA, plate coated with human C1s mutant M19: Q303K, OD450nm
# Experimental: as §1, §2
Binder,EC50 [1] [ng/mL],binding result [2],EC50 [3] [ng/mL],EC50 [2] [ng/mL]
"Anti-C1s antibody hz2-7(H1L2) (antibody, V domains shown, Humanized, human IgG1 / kappa; also called hz2-7(1L2)) VH: EVQLLESGGGLVQPGGSLRLSCAASGFTFSNYFMNWVRQAPGKGLEWVSEIRLKFTNYATHYADSVKGRFTISRDDSKSTLYLQMNSLRAEDTAVYYCTRDYGSRNGYFDYWGQGTLVTVSS VL: DIVMTQTPLSLPVTPGEPASISCRSSKSLLHSNGNTFLYWFLQKPGQSPQLLIYRMSNLASGVPDRFSGSGSGTDFTLKISRVEAEDVGVYYCMQHLEYPYTFGGGTKLEIKR",9,no binding (tested: 1000 ng/ml (Log 3)),2,
"Anti-C1s antibody hz2-8 (H1L2 G80A) (antibody, V domains shown, Humanized variant with G80A in HC CDR2 (already in the entry), human IgG1 / kappa) VH: QVQLVQSGAEVKKPGASVKVSCKASGFNIKEYYMHWVRQAPEQGLEWMGWIDPENADTIYAQKFQGRVTITADTSTNTAYMELSSLRSEDTAVYYCARSRLFFAYWGQGTLVTVSS VL: DIQMTQSPKSLSASVGDRVTITCRASQDVRTALDWYQQKPGQSPKLLIYSASYRYSGVPSRFSGSGSGTDFTLTISSLQPEDFATYYCQQQYTTPYTFGQGTKLEIKR",7,,1,5
"Anti-C1s antibody hz2-8 (H1L2 G80A/T82A) (antibody, V domains shown, Humanized variant with G80A and T82A in HC CDR2 (already in the entry), human IgG1 / kappa) VH: QVQLVQSGAEVKKPGASVKVSCKASGFNIKEYYMHWVRQAPEQGLEWMGWIDPENADAIYAQKFQGRVTITADTSTNTAYMELSSLRSEDTAVYYCARSRLFFAYWGQGTLVTVSS VL: DIQMTQSPKSLSASVGDRVTITCRASQDVRTALDWYQQKPGQSPKLLIYSASYRYSGVPSRFSGSGSGTDFTLTISSLQPEDFATYYCQQQYTTPYTFGQGTKLEIKR",6,,1,8
